The subject of data set [1] is atherosclerotic plaque tissue. The data set can be described thus: Immunohistological analysis of thrombus endarterectomy preparations of the Arteria carotis. It is filed as binding. The settings on record: human thrombus endarterectomy preparations of Arteria carotis (FIG. 5B). The protocol:
(§1) Atherosclerotic plaques from the carotid of patients, removed within the context of a surgery, were disintegrated, suspended, transferred to culture plates and surface-dried. Then a specific ELISA against the Fc portion of the CD68 or GPVI or pure Fc, respectively, was performed. In a parallel immunohistological analysis of human tissue from thrombus endarterectomy preparations of the Arteria carotis were performed.

For data set [2], the system named is foam cell formation from CD34+ stem cells co-cultivated with thrombocytes. The data set can be described thus: Foam cell formation by co-cultivation of CD34+ stem cells with thrombocytes, counted by phase contrast microscopy. It is filed as cell-based, human. Here is the method:
To isolate human thrombocytes venous blood was withdrawn from healthy test persons and collected into acidic citrate dextrose (ACD) buffer. After the centrifugation at 430 g for 20 minutes the platelet-rich plasma (PRP) was removed, added to Tyrodes HEPES buffer (2.5 mM HEPES, 150 mM NaCl, 1 mM […], 2.5 mM NaHCO3, 0.36 mM NaH2PO4, 5.5 mM glucose, 1 mg/ml BSA, pH 6.5) and centrifuged at 900 g for 10 minutes. After the removal of the supernatant the thrombocyte containing pellet was suspended in Tyrodes HEPES buffer (pH 7.4).
Human CD34^+ cells were isolated from human cord blood. This was obtained after the approval of the local ethics committee from healthy women immediately after the birth of a child. At least 95% of the isolated cells were positive for CD34^+ which was confirmed by means of flow cytometry analysis after each isolation. Human mononuclear cells were also obtained from cord blood by density gradient centrifugation on the Biocoll separation solution (BIOCROM Berlin, Germany) at 600 g for 15 minutes. CD34^+ cells were enriched by immunoaffinity selection (CD34 progenitor cell isolation kit; Milteenyi Biotec, Bergisch Gladbach, Germany) according to the manual of the producer. In the following the cells were incubated on 96 well plates which were covered with 0.2% gelatine. For the cultivation of the cells IMDM with glutamax, supplemented with 5% heat-inactivated fetal calf serum, […] penicillin-streptomycin, 1% MEM vitamins and 1% non-essential amino acids were used, all purchased from Gibco (Invitrogen, Karlsruhe, Germany). CD34^+ progenitor cells (50000 cells) were co-cultivated at 37° C. and 5% CO2 with thrombocytes (2×10^8-ml) in 96 well plates which were pre-covered with 0.2% gelatine. The formation of foam cells was counted in six windows by means of phase contrast microscopy.
Foam cells were produced by co-incubation of CD34^+ stem cells with thrombocytes for 10 days in vitro. […] In the following it was microscopically analyzed whether the foam cell formation was inhibited by the incubation with the CD68-Fc homodimers. […]

The test system of data set [3] is atherosclerotic vessels of Apo E mice. The data set can be described thus: In vivo application of J124-labeled CD68-Fc, ex vivo autoradiography of vessels. The following applies: A. carotis; Apo E mice in relation to wild type (FIG. 6). The protocol: Furthermore an in vivo application of J124-labeled CD68-Fc in atherosclerotic Apo E mice and in wild type mice was performed. J124-labeled CD68-Fc was administered into 24 weeks old atherosclerotic mice or in control wild type mice without any significant atherosclerosis. The organs were then removed and the A. carotis on both sides and the aortic arch were analyzed by autoradiography ex vivo.
A staining with oil-red and a corresponding autoradiography is shown in partial figure (B).

In data set [4] the test system is atherosclerotic plaque tissue from the carotid of patients. The experiment in a line: Specific Fc-ELISA on atherosclerotic plaques in vitro. It is filed as binding. The settings on record: disintegrated, surface-dried human carotid plaques (FIG. 5A). Here is the method: as §1
In general terms: ELISA stands for enzyme-linked immunosorbent assay.

In another data set the test system is MMP-9. The experiment in a line: MMP-9 expression in the supernatant of foam cells. It is filed as cell-based, human. Here is the method:
Moreover the method of ROS (“Reactive Oxygen Species”) measurement was used. Typically in the course of an inflammation process monocytes infiltrate the vascular wall, there differentiate into macrophages and produce cytokines, proteases such as the matrix metalloproteinase (MMP) and complement factors, but also free oxidized radicals, i.e. ROS. For the foam cells resulting from the co-incubation of CD34^+ stem cells with thrombocytes in vitro it was detected that they release ROS and also produce matrix metalloproteinase 9 (MMP-9).
The bands correspond to the expression level of MMP-9. In the corresponding lanes the following samples were loaded: 1. control CD34, 2. control CD34, 3. control protein 100 µg/ml, 4. control protein 400 μg/ml, 5. CD68-Fc homodimer 100 µg/ml, 6. CD68-Fc homodimer 200 µg/ml, 7. CD68-Fc homodimer 400 µg/ml, 8. Fluvastatin 1 μM.

The mark [5] stands for this setting: increasing concentrations (summary statement).

B1: CD68-Fc homodimer: Fusion of extracellular domain of human CD68 with mutated human IgG1 Fc via three amino acid connecting element (SEQ ID No. 6), secreted as disulfide-linked homodimer (protein)
chain: NDCPHKKSATLLPSFTVTPTVTESTGTTSHRTTKSHKTTTHRTTTTGTTSHGPTTATHNPTTTSHGNVTVHPTSNSTATSQGPSTATHSPATTSHGNATVHPTSNSTATSPGFTSSAHPEPPPPSPSPSPTSKETIGDYTWTNGSQPCVHLQAQIQIRVMYTTQGGGEAWGISVLNPNKTKVQGSCEGAHPHLLLSFPYGHLSFGFMQDLQQKVVYLSYMAVEYNVSFPHAAQWTFSAQNASLRDLQAPLGQSFSCSNSSIILSPAVHLDLLSLRLQAAQLPHTGVFGQSFSCPSDRSGGRESKSCDKTHTCPPCPAPEAAAAPSVFLFPPKPKDTLMISRTPEVTCVVVDVSHEDPEVKFNWYVDGVEVHNAKTKPREEQYNSTYRVVSVLTVLHQDWLNGKEYKCKVSNKALPASIEKTISKAKGQPREPQVYTLPPSRDELTKNQVSLTCLVKGFYPSDIAVEWESNGQPENNYKTTPPVLDSDGSFFLYSKLTVDKSRWQQGNVFSCSVMHEALHNHYTQKSLSLSPGK
modifications: homodimer; Recombinant CD68-Fc fusion protein
Take B1: the “binding to atherosclerotic plaque tissue (immunohistology)” value in data set [1] was “significant binding”. Also, the foam cell formation result in data set [2] (co-incubation of CD34+ stem cells with thrombocytes for 10 days in vitro, microscopic analysis (FIG. 3B)) is recorded as “inhibited the formation of the foam cells”. Besides, in data set [2] (concentration of 400 μg/ml, pure Fc as control (FIG. 3C)), the “foam cell formation, dependence on dosage” value is recorded as “virtually completely inhibited”. Also, the “formation of foam cells in co-cultivation assays in vitro” value in data set [2] (setting [5]) is “significant inhibition of the formation of foam cells”. Also, the “accumulation in vessels (autoradiography ex vivo)” value in data set [3] is reported as “No significantly increased accumulation”. The “binding to atherosclerotic plaque tissue (Fc-ELISA)” value in data set [4] is reported as “significant binding”. The “expression of MMP-9 in the supernatant of foam cells” value with MMP-9 (100, 200 and 400 μg/ml (lanes 5, 6, 7), in relation with control protein (FIG. 4)) is “clear inhibition of the formation of MMP-9”. Moreover, the “secretion of MMP-9 by foam cells” value in the data set with MMP-9 (setting [5]) is reported as “can be inhibited”.

The values are drawn from US8168160B2, “Anti-inflammatory fusion protein” (Eberhard-Karls-Universität Tübingen, priority 2006, dated 2012).
